Test results published in US20240117030A1 (Pfizer, published 2024).

T1: human IL-4 (human, UniProt P05112 25-153)
T1 sequence (looked up): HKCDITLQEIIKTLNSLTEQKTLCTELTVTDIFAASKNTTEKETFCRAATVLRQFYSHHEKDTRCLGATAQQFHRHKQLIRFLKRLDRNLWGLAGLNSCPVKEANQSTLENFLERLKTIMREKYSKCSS

B1: IL13-1338 (antibody, IgG1, V domains shown)
VH: EVQLVESGGGLVQPGGSLRLSCAASGFTFSSYAMSWVRQAPGKGLEWVASISSGDTTYYPDSVKGRFTISRDNAKNSLYLQMNSLRAEDTAVYYCARNEGYYFGLTLWGQGTLVTVSS
VL: DIQMTQSPSSLSASVGDRVTITCKASESVDHSGSSLMHWYQQKPGKAPKLLIYRASNLESGVPSRFSGSGSGTDFTLTISSLQPEDFATYYCQQSNEDPWTFGGGTKVEIK
B2: IL4-1347 (antibody, human IgG1, kappa, V domains shown)
VH: QVTLRESGPALVKPTQTLTLTCTFSGFSLSTSGMGVSWIRQPPGKGLEWLAHIYWDDDKRYNPSLKSRLTISKDTSRNQVVLTMTNMDPVDTATYYCARRETVFYWYFDVWGRGTPVTVSS
VL: DIQMTQSPSSLSASVGDRVTITCKASQSVDEDGDSYMNWYQQKPGKAPKLLIYAASNLESGVPSRFSGSGSGTDFTLTISSLQPEDFATYYCQQSNEDPPTFGGGTKVEIKR
B3: IL4-1356 (antibody, IgG1, V domains shown)
VH: QVTLRESGPALVKPTQTLTLTCTFSGFSLLTFGSGVSWIRQPPGKGLEWLAHIYWDDDKRYNPSLKSRLTISKDTSRNQVVLTMTNMDPVDTATYYCARRETVFYWYFDVWGRGTPVTVSS
VL: DIQMTQSPSSLSASVGDRVTITCKASQSVDEDGDSYMNWYQQKPGKAPKLLIYAASNLESGVPSRFSGSGSGTDFTLTISSLQPEDFATYYCQQSNEDPPTFGGGTKVEIK
B4: IL4-1350 (antibody, IgG1, V domains shown)
VH: QVTLRESGPALVKPTQTLTLTCTFSGFSLSTWGSGVSWIRQPPGKGLEWLAHIYWDDDKRYNPSLKSRLTISKDTSRNQVVLTMTNMDPVDTATYYCARRETVFYWYFDVWGRGTPVTVSS
VL: DIQMTQSPSSLSASVGDRVTITCKASQSVDEDGDSYMNWYQQKPGKAPKLLIYAASNLESGVPSRFSGSGSGTDFTLTISSLQPEDFATYYCQQSNEDPPTFGGGTKVEIK
B5: IL13-1308 (antibody, IgG1, V domains shown)
VH: EVQLVESGGGLVQPGGSLRLSCAASGFTFSSYAMSWVRQAPGKGLEWVASISSGDTTYYPDSVKGRFTISRDNAKNSLYLQMNSLRAEDTAVYYCARLDGYYFGFPYWGQGTLVTVSS
VL: DIQMTQSPSSLSASVGDRVTITCKASESVDHFGWSLVHWYQQKPGKAPKLLIYRASNLESGVPSRFSGSGSGTDFTLTISSLQPEDFATYYCQQSNEDPWTFGGGTKVEIKR
B6: IL4-1352 (antibody, IgG1, V domains shown)
VH: QVTLRESGPALVKPTQTLTLTCTFSGFSLSNWGMGVSWIRQPPGKGLEWLAHIYWDDDKRYNPSLKSRLTISKDTSRNQVVLTMTNMDPVDTATYYCARRETVFYWYFDVWGRGTPVTVSS
VL: DIQMTQSPSSLSASVGDRVTITCKASQSVDEDGDSYMNWYQQKPGKAPKLLIYAASNLESGVPSRFSGSGSGTDFTLTISSLQPEDFATYYCQQSNEDPPTFGGGTKVEIK

What was measured:
human IL-13 = human IL-13 (human, UniProt P35225 35-146); assay: cell-based or functional assay
human IL-4 = biological target: T1, human IL-4; assay: cell-based or functional assay

human IL-13, sequence (P35225 35-146 limits assumed, form in doubt): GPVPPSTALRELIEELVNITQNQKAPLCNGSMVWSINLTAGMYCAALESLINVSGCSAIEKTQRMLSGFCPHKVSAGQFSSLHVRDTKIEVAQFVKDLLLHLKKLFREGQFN

Binder	CD23: Fold bioactivity relative to IL13-0001 (human IL-13) [fold]	CD23: Fold bioactivity relative to IL13-1307 (human IL-13) [fold]	CD23 IC50 [pM] (human IL-13)	pSTAT6: Fold bioactivity relative to IL13-0001 (human IL-13) [fold]	pSTAT6: Fold bioactivity relative to IL13-1307 (human IL-13) [fold]	pSTAT6 IC50 [pM] (human IL-13)	CD23: Fold bioactivity relative to IL4-1285 (human IL-4) [fold]	CD23 IC50 [pM] (human IL-4)
B1	0.9	26.5	11.5	1.1	1.6	87		
B2							1.5	65.2
B3							2.1	44.9
B4							5.4	17.9
B5	0.7	21.3	14.4	2.2	3.3	42.7		
B6							4.9	19.6
